Laboratory results reported in US20090214427A1 (LICENTIA, published 2009).
Non-standard residues stand in square brackets, D forms with d. No end group written: not given here. Sar = CNCC(=O)O

These binders were tested against recombinant wild-type (wt) human kallikrein 2 (human, UniProt P20151 25-261) (assay: cell-based or functional assay).

Binder | inhibition
GAARRPAPAPSG [GAARRPAPAPSG (SEQ ID NO:11)] | 75%
Ac-ARFKVWWA [Ac-ARFKVWWA (SEQ ID NO:80)] | 94%
RFKVWWAAG-OH [RFKVWWAAG (SEQ ID NO:65)] | 22%
GPARRPFAVTAG-OH [GPARRPFAVTAG (SEQ ID NO:21)] | 17%
WWAAG-OH [WWAAG (SEQ ID NO:67)] | 0%
GAARRAFPAPSG [GAARRAFPAPSG (SEQ ID NO:10)] | 0%
GPARRPFG-OH [GPARRPFG (SEQ ID NO:27)] | 0%
Ac-ARFKVWWGG [Ac-ARFKVWWGG (SEQ ID NO:77)] | 92%
SRFKVG-OH [SRFKVG (SEQ ID NO:71)] | 7%
RRPFG-OH [RRPFG (SEQ ID NO:42)] | 0%
GAARRPF[Sar]APG [GAARRPF-Sar-APG (SEQ ID NO:53)] | 24%
SRFKVWAAAG-OH [SRFKVWAAAG (SEQ ID NO:62)] | 30%
SRAKVWWAAG-OH [SRAKVWWAAG (SEQ ID NO:58)] | 0%
SRFKVWG-OH [SRFKVWG (SEQ ID NO:70)] | 8%
GPARRPFPG-OH [GPARRPFPG (SEQ ID NO:26)] | 33%
AARRPAPG-OH [AARRPAPG (SEQ ID NO:45)] | 36%
GAARRPFPAPSG [GAARRPFPAPSG (SEQ ID NO:7)] | 77%
GPARRPG-OH [GFARRFG as printed in Table 6 (SEQ ID NO:28)] | 4%
GVTAG-OH [GVTAG (SEQ ID NO:38)] | 0%
GAARRPFPAASG [GAARRPFPAASG (SEQ ID NO:13)] | 69%
RRPAG-OH [RRPAG (SEQ ID NO:41)] | 0%
GRRPFPG-OH [GRRPFPG (SEQ ID NO:44)] | 0%

Binder | inhibition
Ac-ARFKVWWG [Ac-ARFKVWWG (SEQ ID NO:76)] | 93%
RRPAP [RRPAP (SEQ ID NO:39)] | 0%
GRPFPVTAG-OH [… as printed in Table 6 (SEQ ID NO:34)] | 0%
SRFKVWWAG-OH [SRFKVWWAG (SEQ ID NO:68)] | 80%
GPVTAG-OH [GFVTAG as printed in Table 6 (SEQ ID NO:37)] | 0%
GPARG-OH [GPARG (SEQ ID NO:30)] | 0%
GRRPFPVTAG-OH [… as printed in Table 6 (SEQ ID NO:33)] | 2%
RRPFP [RRPFP (SEQ ID NO:40)] | 0%
SRFKVAWAAG-OH [SRFKVAWAAG (SEQ ID NO:61)] | 10%
GPARRAFPVTAG-OH [GPARRAFPVTAG (SEQ ID NO:19)] | 0%
SRFKAWWAAG-OH [SRFKAWWAAG (SEQ ID NO:60)] | 39%
GAARRPFPAPAG [GAARRPFPAPAG (SEQ ID NO:14)] | 78%
AAARRPAPG [AAARRPAPG (SEQ ID NO:46)] | 51%
GAARR[Sar]FPAPG [GAARR-Sar-FPAPG (SEQ ID NO:52)] | 0%
GPARRPFPATAG-OH [GPARRPFPATAG (SEQ ID NO:22)] | 58%
GPARRPFPVG-OH [GPARRPFPVG (SEQ ID NO:25)] | 37%
GAARAPFPAPSG [GAARAPFPAPSG (SEQ ID NO:9)] | 0%
GAARRPFAAPSG [GAARRPFAAPSG (SEQ ID NO:12)] | 24%
GRRPAPG-OH [GRRPAPG (SEQ ID NO:43)] | 0%
SRFAVWWAAG-OH [SRFAVWWAAG (SEQ ID NO:59)] | 0%
SRFKG-OH [SRFKG (SEQ ID NO:72)] | 0%
GPARRG-OH [GPARRG (SEQ ID NO:29)] | 8%

Binder | inhibition
GPARRPAPVTAG-OH [GPARRPAPVTAG (SEQ ID NO:20)] | 49%
AARRPFPG [AARRPFPG (SEQ ID NO:47)] | 28%
ARFKVWWA [ARFKVWWA (SEQ ID NO:79)] | 95%
GARRPFPVTAG [GARRPFPVTAG (SEQ ID NO:32)] | 27%
ARFKVWWGG [ARFKVWWGG (SEQ ID NO:78)] | 93%
GAAARPFPAPSG [GAAARPFPAPSG (SEQ ID NO:8)] | 0%
GFPVTAG-OH [GFFVTAG as printed in Table 6 (SEQ ID NO:36)] | 0%
GPARRPFPVTG-OH [GPARRPFPVTG (SEQ ID NO:24)] | 48%
Ac-ARFKVWWAA [Ac-ARFKVWWAA (SEQ ID NO:81)] | 93%
Ac-SRFKVWWG [Ac-SRFKVWWG (SEQ ID NO:74)] | 86%
GAARRPFPAPG [GAARRPFPAPG (SEQ ID NO:51)] | 69%
GAARR[Sar]F[Sar]APG [GAARR-Sar-F-Sar-APG (SEQ ID NO:54)] | 0%
ARFKVWWG [ARFKVWWG (SEQ ID NO:75)] | 94%
GPAARPFPVTAG-OH [GPAARPFPVTAG (SEQ ID NO:17)] | 0%
GAARRPFPVTAG [GAARRPFPVTAG (SEQ ID NO:16)] | 61%
GPFPVTAG-OH [GFFPVTAG as printed in Table 6 (SEQ ID NO:35)] | 0%
GPARAPFPVTAG-OH [GPARAPFPVTAG (SEQ ID NO:18)] | 0%
GPARRPFPVAAG-OH [GPARRPFPVAAG (SEQ ID NO:23)] | 45%
FKVWWAAG [FKVWWAAG (SEQ ID NO:66)] | 0%
ARFKVWWA-NH2 [ARFKVWWA(CONH2) (SEQ ID NO:82)] | 86%
AAARRPFPG [AAARRPFPG (SEQ ID NO:48)] | 37%
